Experimental findings from the supplement of paper PMC5998384 are described below.

In data set [1] the test system is HeLa Kyoto. The data set can be described thus: solubility in G1/S (NP-40 vs SDS abundance) (log2 ratio); higher = more soluble. Particulars: cell cycle stage: G1/S.
In data set [2] the test system is HeLa Kyoto. In words: solubility change mitosis vs G1/S (difference of NP-40 vs SDS log2 ratios) (log2 ratio difference); higher = more soluble in mitosis.
The subject of data set [3] is HeLa Kyoto. The data set can be described thus: melting temperature (median over replicates), in situ; higher = more thermally stable.
Data set [4] deals with HeLa Kyoto. In words: thermal stability score vs G1/S (z-score of summed log2 fold changes over temperatures); higher = more thermally stable than in G1/S.
Setting [5] is: cell cycle stage: early G1 (4.5 h after nocodazole release).
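For melting temperature (median over replicates), in situ in this document: HeLa Kyoto cells synchronized by double thymidine or nocodazole block, proteins quantified by TMT10plex mass spectrometry, three independent biological replicates.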
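For solubility change mitosis vs G1/S (difference of NP-40 vs SDS log2 ratios) in this document: synchronized HeLa Kyoto cells (double thymidine block for G1/S, nocodazole release for mitosis), protein amounts in NP-40 versus SDS lysates quantified by mass spectrometry, three biological replicates.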
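For solubility in G1/S (NP-40 vs SDS abundance) in this document: HeLa Kyoto cells arrested at G1/S by double thymidine block, proteins quantified by TMT10plex mass spectrometry in mild NP-40 versus SDS extracts, three biological replicates.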
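For thermal stability score vs G1/S (z-score of summed log2 fold changes over temperatures) in this document: synchronized HeLa Kyoto cells, proteins quantified by TMT10plex mass spectrometry, three biological replicates, mitosis taken 0.5 h after nocodazole release, G1/S directly after double thymidine block.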

For “MGGPRGAGWVAAGLLLGAGACYCIYRLTRGRRRGDRELGIRSSKSAGALEEGTSEGQLCGRSARPQTGGTWESQWSKTSQPEDLTDGSYDDVLNAEQLQKLLYLLESTEDPVIIERALITLGNNAAFSVNQAIIRELGGIPIVANKINHSNQSIKEKALNALNNLSVNVENQIKIKIYISQVCEDVFSGPLNSAVQLAGLTLLTNMTVTNDHQHMLHSYITDLFQVLLTGNGNTKVQVLKLLLNLSENPAMTEGLLRAQVDSSFLSLYDSHVAKEILLRVLTLFQNIKNCLKIEGHLAVQPTFTEGSLFFLLHGEECAQKIRALVDHHDAEVKEKVVTIIPKI [ARMC10]”, the “solubility in G1/S (log2)” value with HeLa Kyoto [1] turned out to be 0.226. Also, the “solubility change mitosis (log2)” value in the data set on HeLa Kyoto [2] was -0.108. The melting temperature amounted to 50.8 °C with HeLa Kyoto [3] (cell cycle stage: G1/S) and 49.7 °C with HeLa Kyoto [3] (cell cycle stage: mitosis). Besides, the thermal stability score in the data set on HeLa Kyoto [4] (setting [5]) was 0.978; in the data set with HeLa Kyoto [4] (cell cycle stage: mitosis) it was 1.04.
For “MGGTTSTRRVTFEADENENITVVKGIRLSENVIDRMKESSPSGSKSQRYSGAYGASVSDEELKRRVAEELALEQAKKESEDQKRLKQAKELDRERAAANEQLTRAILRERICSEEERAKAKHLARQLEEKDRVLKKQDAFYKEQLARLEERSSEFYRVTTEQYQKAAEEVEAKFKRYESHPVCADLQAKILQCYRENTHQTLKCSALATQYMHCVNHAKQSMLEKGG [CHCHD3]”, in the data set on HeLa Kyoto [1], the “solubility in G1/S (log2)” value is 0.229. The “solubility change mitosis (log2)” value in the data set on HeLa Kyoto [2] stood at 0.291. Also, the melting temperature came out at 54.6 °C with HeLa Kyoto [3] (cell cycle stage: G1/S) and 54.2 °C in the data set on HeLa Kyoto [3] (cell cycle stage: mitosis). Also, the figures for the thermal stability score with HeLa Kyoto [4] (setting [5]) and in the data set with HeLa Kyoto [4] (cell cycle stage: mitosis) were -2.54 and -6, respectively.
Take “MGHRFLRGLLTLLLPPPPLYTRHRMLGPESVPPPKRSRSKLMAPPRIGTHNGTFHCDEALACALLRLLPEYRDAEIVRTRDPEKLASCDIVVDVGGEYDPRRHRYDHHQRSFTETMSSLSPGKPWQTKLSSAGLIYLHFGHKLLAQLLGTSEEDSMVGTLYDKMYENFVEEVDAVDNGISQWAEGEPRYALTTTLSARVARLNPTWNHPDQDTEAGFKRAMDLVQEEFLQRLDFYQHSWLPARALVEEALAQRFQVDPSGEIVELAKGACPWKEHLYHLESGLSPPVAIFFVIYTDQAGQWRIQCVPKEPHSFQSRLPLPEPWRGLRDEALDQVSGIPGCIFVHASGFIGGHRTREGALSMARATLAQRSYLPQIS [C12ORF10]”: in the data set with HeLa Kyoto [1], the “solubility in G1/S (log2)” value was determined as 0.418. Moreover, the “solubility change mitosis (log2)” value with HeLa Kyoto [2] is -0.074. The melting temperature was 53.8 °C in the data set with HeLa Kyoto [3] (cell cycle stage: G1/S) and 53.9 °C in the data set with HeLa Kyoto [3] (cell cycle stage: mitosis). The figures for the thermal stability score with HeLa Kyoto [4] (setting [5]) and with HeLa Kyoto [4] (cell cycle stage: mitosis) were -0.294 and -1.46, respectively.
On to “MGILEKISEIEKEIARTQKNKATEYHLGLLKAKLAKYRAQLLEPSKSASSKGEGFDVMKSGDARVALIGFPSVGKSTFLSLMTSTASEAASYEFTTLTCIPGVIEYKGANIQLLDLPGIIEGAAQGKGRGRQVIAVARTADVIIMMLDATKGEVQRSLLEKELESVGIRLNKHKPNIYFKPKKGGGISFNSTVTLTQCSEKLVQLILHEYKIFNAEVLFREDCSPDEFIDVIVGNRVYMPCLYVYNKIDQISMEEVDRLARKPNSVVISCGMKLNLDYLLEMLWEYLALTCIYTKKRGQRPDFTDAIILRKGASVEHVCHRIHRSLASQFKYALVWGTSTKYSPQRVGLTHTMEHEDVIQIVKK [DRG2]”, for which the “solubility in G1/S (log2)” value with HeLa Kyoto [1] amounted to 0.0131. In the data set on HeLa Kyoto [2], the “solubility change mitosis (log2)” value is -0.113. The melting temperature with HeLa Kyoto [3] (cell cycle stage: G1/S) turned out to be 51.9 °C; with HeLa Kyoto [3] (cell cycle stage: mitosis), 51.6 °C. Also, the thermal stability score in the data set on HeLa Kyoto [4] (setting [5]) is -0.377; with HeLa Kyoto [4] (cell cycle stage: mitosis) it was -0.907.
Regarding “MGILSITDQPPLVQAIFSRDVEEVRSLLSQKENINVLDQERRTPLHAAAYVGDVPILQLLLMSGANVNAKDTLWLTPLHRAAASRNEKVLGLLLAHSADVNARDKLWQTPLHVAAANRATKCAEALAPLLSSLNVADRSGRSALHHAVHSGHLETVNLLLNKGASLNVCDKKERQPLHWAAFLGHLEVLKLLVARGADLGCKDRKGYGLLHTAAASGQIEVVKYLLRMGAEIDEPNAFGNTALHIACYLGQDAVAIELVNAGANVNQPNDKGFTPLHVAAVSTNGALCLELLVNNGADVNYQSKEGKSPLHMAAIHGRFTRSQILIQNGSEIDCADKFGNTPLHVAARYGHELLISTLMTNGADTARRGIHDMFPLHLAVLFGFSDCCRKLLSSGQLYSIVSSLSNEHVLSAGFDINTPDNLGRTCLHAAASGGNVECLNLLLSSGADLRRRDKFGRTPLHYAAANGSYQCAVTLVTAGAGVNEADCKGCSPLHYAAASDTYRRAEPHTPSSHDAEEDEPLKESRRKEAFFCLEFLLDNGADPSLRDRQGYTAVHYAAAYGNRQNLELLLEMSFNCLEDVESTIPVSPLHLAAYNGHCEALKTLAETLVNLDVRDHKGRTALFLATERGSTECVEVLTAHGASALIKERKRKWTPLHAAAASGHTDSLHLLIDSGERADITDVMDAYGQTPLMLAIMNGHVDCVHLLLEKGSTADAADLRGRTALHRGAVTGCEDCLAALLDHDAFVLCRDFKGRTPIHLASACGHTAVLRTLLQAALSTDPLDAGVDYSGYSPMHWASYTGHEDCLELLLEHSPFSYLEGNPFTPLHCAVINNQDSTTEMLLGALGAKIVNSRDAKGRTPLHAAAFADNVSGLRMLLQHQAEVNATDHTGRTALMTAAENGQTAAVEFLLYRGKADLTVLDENKNTALHLACSKGHEKCALMILAETQDLGLINATNSALQMPLHIAARNGLASVVQALLSHGATVLAVDEEGHTPALACAPNKDVADCLALILSTMKPFPPKDAVSPFSFSLLKNCSIAAAKTVGGCGALPHGASCPYSQERPGAIGLDGCYSE [ANKRD52]”, the “solubility in G1/S (log2)” value with HeLa Kyoto [1] is -0.0981. The “solubility change mitosis (log2)” value in the data set on HeLa Kyoto [2] was -0.171. Moreover, the results for the melting temperature with HeLa Kyoto [3] (cell cycle stage: G1/S) and in the data set with HeLa Kyoto [3] (cell cycle stage: mitosis) were 51.5 °C and 49.7 °C, respectively. The thermal stability score was -0.0695 in the data set on HeLa Kyoto [4] (setting [5]) and 0.105 with HeLa Kyoto [4] (cell cycle stage: mitosis).
On to “MGIQTSPVLLASLGVGLVTLLGLAVGSYLVRRSRRPQVTLLDPNEKYLLRLLDKTTVSHNTKRFRFALPTAHHTLGLPVGKHIYLSTRIDGSLVIRPYTPVTSDEDQGYVDLVIKVYLKGVHPKFPEGGKMSQYLDSLKVGDVVEFRGPSGLLTYTGKGHFNIQPNKKSPPEPRVAKKLGMIAGGTGITPMLQLIRAILKVPEDPTQCFLLFANQTEKDIILREDLEELQARYPNRFKLWFTLDHPPKDWAYSKGFVTADMIREHLPAPGDDVLVLLCGPPPMVQLACHPNLDKLGYSQKMRFTY [CYB5R1]”, for which, in the data set on HeLa Kyoto [1], the “solubility in G1/S (log2)” value worked out at 0.339. For the same sequence, in the data set on HeLa Kyoto [2], the “solubility change mitosis (log2)” value was -0.041. The values for the melting temperature in the data set on HeLa Kyoto [3] (cell cycle stage: G1/S) and in the data set on HeLa Kyoto [3] (cell cycle stage: mitosis) were 54.1 °C and 55.3 °C, respectively. The thermal stability score in the data set with HeLa Kyoto [4] (setting [5]) was -0.825; with HeLa Kyoto [4] (cell cycle stage: mitosis) it was -0.661.
